Experimental data published in the supplement of paper PMC7125110.
± gives the standard error. For part of these data: Fewer inactive variants are shown than the library holds.

B1: glmS ribozyme (parent)
chain: AUAAAAGCGCCAGAACUACAGAAAUGUAGUUGACGAGGAGGAGGUUUAUCGAAUUUUCGGCGGAUGCCUCCAAA

Key:
Settings in all cases: with glucosamine-6-phosphate
glucosamine-6-phosphate [1] = variants of: B1; assay: kcat; higher = faster cleavage; RNA array
Method in brief: (§1)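 Glucosamine-6-phosphate, from 40 μM to 10 mM in HEPES/KCl/Mg(OAc)2 buffer, was flowed over sequenced MiSeq chips carrying barcoded ribozyme variants transcribed in situ by E. coli RNA polymerase. A hybridised Cy3 probe tracked the variants at 37 °C as tiles were imaged over ~14 h. kobs, kcat and KM were obtained by fitting normalised per-tile medians to exponential decays and then applying weighted Michaelis–Menten fits across concentrations.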

glucosamine-6-phosphate [2] = variants of: B1; assay: KM; higher = weaker cofactor use; RNA array
Method in brief: as §1

glucosamine-6-phosphate [3] = variants of: B1; assay: self-cleavage kobs at 640 uM GlcN6P; higher = faster cleavage; RNA array
Method in brief: as §1

glucosamine-6-phosphate [4] = variants of: B1; assay: self-cleavage kobs at 2500 uM GlcN6P; higher = faster cleavage; RNA array
Method in brief: as §1

glucosamine-6-phosphate [5] = variants of: B1; assay: self-cleavage kobs at 10000 uM GlcN6P; higher = faster cleavage; RNA array
Method in brief: as §1

glucosamine-6-phosphate [6] = variants of: B1; assay: self-cleavage kobs at 160 uM GlcN6P; higher = faster cleavage; RNA array
Method in brief: as §1

glucosamine-6-phosphate [7] = variants of: B1; assay: self-cleavage kobs at 40 uM GlcN6P; higher = faster cleavage; RNA array
Method in brief: as §1

| Variant | kcat (glucosamine-6-phosphate [1]) | KM (glucosamine-6-phosphate [2]) | self-cleavage kobs at 640 uM GlcN6P (glucosamine-6-phosphate [3]) | self-cleavage kobs at 2500 uM GlcN6P (glucosamine-6-phosphate [4]) | self-cleavage kobs at 10000 uM GlcN6P (glucosamine-6-phosphate [5]) | self-cleavage kobs at 160 uM GlcN6P (glucosamine-6-phosphate [6]) | self-cleavage kobs at 40 uM GlcN6P (glucosamine-6-phosphate [7]) |
| --- | --- | --- | --- | --- | --- | --- | --- |
| U57G | 0.000109 ± 3.4e-06 s⁻¹ | 2910 ± 250 µM | 2.22e-05 ± 1.9e-06 s⁻¹ | 4.95e-05 ± 1.4e-06 s⁻¹ | 8.52e-05 ± 1.5e-06 s⁻¹ |  |  |
| U30G C50U | < 1e-05 s⁻¹ |  |  |  |  | < 1e-05 s⁻¹ |  |
| C61G C71U | < 1e-05 s⁻¹ |  |  |  | < 1e-05 s⁻¹ |  | < 1e-05 s⁻¹ |
| G44A G66U | 2.15e-05 ± 1.4e-06 s⁻¹ | 2150 ± 520 µM |  |  |  |  |  |
| C16A U46G | 0.000285 ± 5.2e-05 s⁻¹ | 1720 ± 670 µM | 7.33e-05 ± 1.3e-05 s⁻¹ | 0.000212 ± 3e-05 s⁻¹ | 0.000222 ± 3.3e-05 s⁻¹ |  |  |
| G43U C68G | 0.00617 ± 0.0012 s⁻¹ | 527 ± 180 µM | 0.00304 ± 0.00052 s⁻¹ | 0.00416 ± 0.0011 s⁻¹ | 0.00756 ± 0.0013 s⁻¹ | 0.00129 ± 0.00028 s⁻¹ | 0.000533 ± 9.6e-05 s⁻¹ |
| U30G U69G | 3.4e-05 ± 1.2e-05 s⁻¹ |  | 6.34e-05 ± 1.3e-05 s⁻¹ | 3.55e-05 ± 8.8e-06 s⁻¹ |  | 5.83e-05 ± 1.7e-05 s⁻¹ |  |
| U31A A52G | 0.00103 ± 0.00022 s⁻¹ | 4620 ± 1600 µM | 0.000142 ± 2.3e-05 s⁻¹ | 0.000305 ± 4.3e-05 s⁻¹ | 0.000752 ± 7.9e-05 s⁻¹ | 4.63e-05 ± 1.3e-05 s⁻¹ |  |
| A48U C70G | 3.29e-05 ± 1e-05 s⁻¹ |  | 3.69e-05 ± 1.1e-05 s⁻¹ | 4.89e-05 ± 9.2e-06 s⁻¹ |  |  |  |
| A15G C16G | 0.00525 ± 0.001 s⁻¹ | 2660 ± 820 µM | 0.0011 ± 0.00023 s⁻¹ | 0.00326 ± 0.00063 s⁻¹ | 0.00391 ± 0.00059 s⁻¹ | 0.000213 ± 6.8e-05 s⁻¹ | 9.12e-05 ± 2.2e-05 s⁻¹ |
| C16A U54C | 0.00231 ± 0.00079 s⁻¹ |  | 0.000575 ± 0.00013 s⁻¹ | 0.000967 ± 0.00025 s⁻¹ | 0.00194 ± 0.00029 s⁻¹ | 0.000102 ± 2.6e-05 s⁻¹ | 6.96e-05 ± 1.3e-05 s⁻¹ |
| A12G A15G C70A | 0.000107 ± 1.9e-05 s⁻¹ | 2120 ± 890 µM |  | 5.85e-05 ± 1.1e-05 s⁻¹ | 8.6e-05 ± 3.1e-05 s⁻¹ |  |  |
| A15G G44U | 0.00046 ± 2.8e-05 s⁻¹ | 1550 ± 270 µM | 0.000151 ± 2.5e-05 s⁻¹ | 0.000252 ± 6.3e-05 s⁻¹ | 0.0004 ± 3.1e-05 s⁻¹ | 3.52e-05 ± 1.5e-05 s⁻¹ |  |
| U31G G66C | 0.000137 ± 2.5e-05 s⁻¹ | 1360 ± 590 µM | 4.89e-05 ± 1.1e-05 s⁻¹ | 7.89e-05 ± 1.3e-05 s⁻¹ | 0.000146 ± 3.1e-05 s⁻¹ |  |  |
| A15U A33G | < 1e-05 s⁻¹ |  |  |  | < 1e-05 s⁻¹ |  |  |
| G29U G66U | 0.000182 ± 1.7e-05 s⁻¹ | 1300 ± 360 µM | 5.65e-05 ± 1.1e-05 s⁻¹ | 0.000151 ± 2.6e-05 s⁻¹ | 0.000156 ± 1.6e-05 s⁻¹ |  |  |
